Series [1] deals with cell surface beta1,4-galactosyltransferase I (GalT), mouse, endogenous (UniProt P15535).
Series [2] addresses cyclin-dependent kinase inhibitor p57(kip2) (UniProt P49919).

His tagged GTAP: the “in vitro ubiquitination of immunoprecipitated GalT” value in series [1] is on record as “Surprisingly GTAP had no effect on immunoprecipitated GalT in an in vitro ubiquitin system”. The “in vitro ubiquitination of p57 with biotinylated ubiquitin” value in series [2] is listed as “GTAP increased the ubiquitination of p57 only in the presence of E1”.

Source of the values: patent publication US20110171681.
